# Measured values taken from US20210388087A1 (Chugai, published 2021).
# B1: GLS3000 K50A (antibody, name in Kabat numbering, V domains shown)
# VH: QVQLVESGGGVVQPGRSLRLSCAASGFTFSNAWMHWVRQAPGKGLEWVAQIKAKSNNYATYYAESVKGRFTISRDDSKNSLYLQMNSLKTEDTAVYYCRYVHYGAYYGVDAWGQGTTVTVSS
# VL: DIVMTQSPLSLPVTPGEPASISCRSSQSLVHSNRNTYLHWYQQKPGQAPRLLIYAVSNRFSGVPDRFSGSGSGTDFTLKISRVEAEDVGVYYCGQGTQVPYTFGQGTKLEIK
# notes: one-arm IgG as m2
# B2: GLS3000 K50G (antibody, name in Kabat numbering, V domains shown)
# VH: QVQLVESGGGVVQPGRSLRLSCAASGFTFSNAWMHWVRQAPGKGLEWVAQIKAKSNNYATYYAESVKGRFTISRDDSKNSLYLQMNSLKTEDTAVYYCRYVHYGAYYGVDAWGQGTTVTVSS
# VL: DIVMTQSPLSLPVTPGEPASISCRSSQSLVHSNRNTYLHWYQQKPGQAPRLLIYGVSNRFSGVPDRFSGSGSGTDFTLKISRVEAEDVGVYYCGQGTQVPYTFGQGTKLEIK
# notes: one-arm IgG as m2
# B3: GLS3000 K50Y (antibody, name in Kabat numbering, V domains shown)
# VH: QVQLVESGGGVVQPGRSLRLSCAASGFTFSNAWMHWVRQAPGKGLEWVAQIKAKSNNYATYYAESVKGRFTISRDDSKNSLYLQMNSLKTEDTAVYYCRYVHYGAYYGVDAWGQGTTVTVSS
# VL: DIVMTQSPLSLPVTPGEPASISCRSSQSLVHSNRNTYLHWYQQKPGQAPRLLIYYVSNRFSGVPDRFSGSGSGTDFTLKISRVEAEDVGVYYCGQGTQVPYTFGQGTKLEIK
# notes: one-arm IgG as m2
# B4: GLS3000 K50S (antibody, name in Kabat numbering, V domains shown)
# VH: QVQLVESGGGVVQPGRSLRLSCAASGFTFSNAWMHWVRQAPGKGLEWVAQIKAKSNNYATYYAESVKGRFTISRDDSKNSLYLQMNSLKTEDTAVYYCRYVHYGAYYGVDAWGQGTTVTVSS
# VL: DIVMTQSPLSLPVTPGEPASISCRSSQSLVHSNRNTYLHWYQQKPGQAPRLLIYSVSNRFSGVPDRFSGSGSGTDFTLKISRVEAEDVGVYYCGQGTQVPYTFGQGTKLEIK
# notes: one-arm IgG as m2
# B5: GLS3000 K50P (antibody, name in Kabat numbering, V domains shown)
# VH: QVQLVESGGGVVQPGRSLRLSCAASGFTFSNAWMHWVRQAPGKGLEWVAQIKAKSNNYATYYAESVKGRFTISRDDSKNSLYLQMNSLKTEDTAVYYCRYVHYGAYYGVDAWGQGTTVTVSS
# VL: DIVMTQSPLSLPVTPGEPASISCRSSQSLVHSNRNTYLHWYQQKPGQAPRLLIYPVSNRFSGVPDRFSGSGSGTDFTLKISRVEAEDVGVYYCGQGTQVPYTFGQGTKLEIK
# notes: one-arm IgG as m2
# B6: GLS3000 K107E (antibody, name in Kabat numbering, V domains shown)
# VH: QVQLVESGGGVVQPGRSLRLSCAASGFTFSNAWMHWVRQAPGKGLEWVAQIKAKSNNYATYYAESVKGRFTISRDDSKNSLYLQMNSLKTEDTAVYYCRYVHYGAYYGVDAWGQGTTVTVSS
# VL: DIVMTQSPLSLPVTPGEPASISCRSSQSLVHSNRNTYLHWYQQKPGQAPRLLIYKVSNRFSGVPDRFSGSGSGTDFTLKISRVEAEDVGVYYCGQGTQVPYTFGQGTKLEIE
# notes: one-arm IgG as m2
# B7: GLS3000 K50D (antibody, name in Kabat numbering, V domains shown)
# VH: QVQLVESGGGVVQPGRSLRLSCAASGFTFSNAWMHWVRQAPGKGLEWVAQIKAKSNNYATYYAESVKGRFTISRDDSKNSLYLQMNSLKTEDTAVYYCRYVHYGAYYGVDAWGQGTTVTVSS
# VL: DIVMTQSPLSLPVTPGEPASISCRSSQSLVHSNRNTYLHWYQQKPGQAPRLLIYDVSNRFSGVPDRFSGSGSGTDFTLKISRVEAEDVGVYYCGQGTQVPYTFGQGTKLEIK
# notes: one-arm IgG as m2
# B8: GLS3000 L27bE (antibody, name in Kabat numbering, V domains shown)
# VH: QVQLVESGGGVVQPGRSLRLSCAASGFTFSNAWMHWVRQAPGKGLEWVAQIKAKSNNYATYYAESVKGRFTISRDDSKNSLYLQMNSLKTEDTAVYYCRYVHYGAYYGVDAWGQGTTVTVSS
# VL: DIVMTQSPLSLPVTPGEPASISCRSSQSEVHSNRNTYLHWYQQKPGQAPRLLIYKVSNRFSGVPDRFSGSGSGTDFTLKISRVEAEDVGVYYCGQGTQVPYTFGQGTKLEIK
# notes: one-arm IgG as m2
# B9: GLS3000 K50Q (antibody, name in Kabat numbering, V domains shown)
# VH: QVQLVESGGGVVQPGRSLRLSCAASGFTFSNAWMHWVRQAPGKGLEWVAQIKAKSNNYATYYAESVKGRFTISRDDSKNSLYLQMNSLKTEDTAVYYCRYVHYGAYYGVDAWGQGTTVTVSS
# VL: DIVMTQSPLSLPVTPGEPASISCRSSQSLVHSNRNTYLHWYQQKPGQAPRLLIYQVSNRFSGVPDRFSGSGSGTDFTLKISRVEAEDVGVYYCGQGTQVPYTFGQGTKLEIK
# notes: one-arm IgG as m2
# B10: GLS3000 K50R (antibody, name in Kabat numbering, V domains shown)
# VH: QVQLVESGGGVVQPGRSLRLSCAASGFTFSNAWMHWVRQAPGKGLEWVAQIKAKSNNYATYYAESVKGRFTISRDDSKNSLYLQMNSLKTEDTAVYYCRYVHYGAYYGVDAWGQGTTVTVSS
# VL: DIVMTQSPLSLPVTPGEPASISCRSSQSLVHSNRNTYLHWYQQKPGQAPRLLIYRVSNRFSGVPDRFSGSGSGTDFTLKISRVEAEDVGVYYCGQGTQVPYTFGQGTKLEIK
# notes: one-arm IgG as m2
# B11: GLS3000 K74T (antibody, name in Kabat numbering, V domains shown)
# VH: QVQLVESGGGVVQPGRSLRLSCAASGFTFSNAWMHWVRQAPGKGLEWVAQIKAKSNNYATYYAESVKGRFTISRDDSKNSLYLQMNSLKTEDTAVYYCRYVHYGAYYGVDAWGQGTTVTVSS
# VL: DIVMTQSPLSLPVTPGEPASISCRSSQSLVHSNRNTYLHWYQQKPGQAPRLLIYKVSNRFSGVPDRFSGSGSGTDFTLTISRVEAEDVGVYYCGQGTQVPYTFGQGTKLEIK
# notes: one-arm IgG as m2
# B12: GLS3000 K50L (antibody, name in Kabat numbering, V domains shown)
# VH: QVQLVESGGGVVQPGRSLRLSCAASGFTFSNAWMHWVRQAPGKGLEWVAQIKAKSNNYATYYAESVKGRFTISRDDSKNSLYLQMNSLKTEDTAVYYCRYVHYGAYYGVDAWGQGTTVTVSS
# VL: DIVMTQSPLSLPVTPGEPASISCRSSQSLVHSNRNTYLHWYQQKPGQAPRLLIYLVSNRFSGVPDRFSGSGSGTDFTLKISRVEAEDVGVYYCGQGTQVPYTFGQGTKLEIK
# notes: one-arm IgG as m2
# B13: GLS3000 L27bD (antibody, name in Kabat numbering, V domains shown)
# VH: QVQLVESGGGVVQPGRSLRLSCAASGFTFSNAWMHWVRQAPGKGLEWVAQIKAKSNNYATYYAESVKGRFTISRDDSKNSLYLQMNSLKTEDTAVYYCRYVHYGAYYGVDAWGQGTTVTVSS
# VL: DIVMTQSPLSLPVTPGEPASISCRSSQSDVHSNRNTYLHWYQQKPGQAPRLLIYKVSNRFSGVPDRFSGSGSGTDFTLKISRVEAEDVGVYYCGQGTQVPYTFGQGTKLEIK
# notes: one-arm IgG as m2
# B14: GLS3000 K50E (antibody, name in Kabat numbering, V domains shown)
# VH: QVQLVESGGGVVQPGRSLRLSCAASGFTFSNAWMHWVRQAPGKGLEWVAQIKAKSNNYATYYAESVKGRFTISRDDSKNSLYLQMNSLKTEDTAVYYCRYVHYGAYYGVDAWGQGTTVTVSS
# VL: DIVMTQSPLSLPVTPGEPASISCRSSQSLVHSNRNTYLHWYQQKPGQAPRLLIYEVSNRFSGVPDRFSGSGSGTDFTLKISRVEAEDVGVYYCGQGTQVPYTFGQGTKLEIK
# notes: one-arm IgG as m2
# B15: GLS3000 K50T (antibody, name in Kabat numbering, V domains shown)
# VH: QVQLVESGGGVVQPGRSLRLSCAASGFTFSNAWMHWVRQAPGKGLEWVAQIKAKSNNYATYYAESVKGRFTISRDDSKNSLYLQMNSLKTEDTAVYYCRYVHYGAYYGVDAWGQGTTVTVSS
# VL: DIVMTQSPLSLPVTPGEPASISCRSSQSLVHSNRNTYLHWYQQKPGQAPRLLIYTVSNRFSGVPDRFSGSGSGTDFTLKISRVEAEDVGVYYCGQGTQVPYTFGQGTKLEIK
# notes: one-arm IgG as m2
# Target: T1, CD3 epsilon homodimer protein (UniProt P07766 23-126)
# T1 construct: also called CD3 (CD3 epsilon)
# T1 sequence (P07766 23-126): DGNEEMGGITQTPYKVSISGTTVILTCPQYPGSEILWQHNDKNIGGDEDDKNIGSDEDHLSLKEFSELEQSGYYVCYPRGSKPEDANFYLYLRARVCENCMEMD
# Assay: SPR Biacore T200, CD3e homodimer on chip, vs unaltered GLS3000 antibody
row,Binder,ratio of amounts bound (Z=Y/X)
1,B1,0.23
2,B2,0.16
3,B3,0.24
4,B4,0.23
5,B5,0.3
6,B6,0.94
7,B7,0.22
8,B8,0.17
9,B9,0.18
10,B10,0.5
11,B11,0.84
12,B12,0.24
13,B13,0.17
14,B14,0.24
15,B15,0.19
